{"source": "paper PMC4204861", "target": "rEag1-Δeag (rat)", "data": [{"substance": "rEag1 eag domain fragment (domain or fragment)", "values": [{"measurement": "slow phase of inactivation of rEag1-Δeag (10- or 40-sec test pulses), two-electrode voltage clamp in Xenopus oocytes, co-expression (% reduction in current amplitude)", "result": 60}]}]}
